Laboratory results as given in patent US20220298218A1 (ANTAG THERAPEUTICS, published 2022).
*1 amine or outer side, *2 acyl side, *3 side chain or, on linkers, in order; H or OH if unused. Where no end group is shown, it is not given here. Side-chain parts run from the residue outwards. The star is where a group is joined. C18 diacid = O=C(O)CCCCCCCCCCCCCCCCC(=O)*; C16 diacid = O=C(O)CCCCCCCCCCCCCCC(=O)*; γGlu = O=C(O)[C@H](CCC(=O)[*:2])N[*:1]; AEEA = NCCOCCOCC(=O)O

T1: human GIP receptor (human, UniProt P48546 22-466)
T1 sequence (looked up): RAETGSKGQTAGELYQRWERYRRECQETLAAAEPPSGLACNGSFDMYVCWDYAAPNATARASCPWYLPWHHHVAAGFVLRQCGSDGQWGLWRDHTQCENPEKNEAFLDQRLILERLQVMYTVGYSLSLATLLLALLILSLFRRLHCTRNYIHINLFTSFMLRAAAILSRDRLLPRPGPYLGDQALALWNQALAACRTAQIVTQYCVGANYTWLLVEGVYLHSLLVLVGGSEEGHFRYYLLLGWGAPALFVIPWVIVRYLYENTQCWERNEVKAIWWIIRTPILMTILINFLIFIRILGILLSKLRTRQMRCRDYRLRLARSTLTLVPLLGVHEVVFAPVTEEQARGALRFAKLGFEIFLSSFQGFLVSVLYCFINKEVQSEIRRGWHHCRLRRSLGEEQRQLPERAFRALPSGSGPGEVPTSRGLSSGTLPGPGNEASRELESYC

B1: AT455 (peptide)
peptide: TFISDYKIAMDKIHQQDFVNWLLAQKG
HELM: PEPTIDE1{T.F.I.S.D.Y.K.I.A.M.D.K.I.H.Q.Q.D.F.V.N.W.L.L.A.Q.K.G}|PEPTIDE2{[O=C(O)CCCCCCCCCCCCCCC(=O)[*:2]].[gGlu]}$PEPTIDE1,PEPTIDE2,7:R3-2:R2$$$V2.0; N-terminus assumed
SMILES: CC[C@H](C)[C@H](NC(=O)[C@H](CCCCNC(=O)CC[C@H](NC(=O)CCCCCCCCCCCCCCC(=O)O)C(=O)O)NC(=O)[C@H](Cc1ccc(O)cc1)NC(=O)[C@H](CC(=O)O)NC(=O)[C@H](CO)NC(=O)[C@@H](NC(=O)[C@H](Cc1ccccc1)NC(=O)[C@@H](N)[C@@H](C)O)[C@@H](C)CC)C(=O)N[C@@H](C)C(=O)N[C@@H](CCSC)C(=O)N[C@@H](CC(=O)O)C(=O)N[C@@H](CCCCN)C(=O)N[C@H](C(=O)N[C@@H](Cc1c[nH]cn1)C(=O)N[C@@H](CCC(N)=O)C(=O)N[C@@H](CCC(N)=O)C(=O)N[C@@H](CC(=O)O)C(=O)N[C@@H](Cc1ccccc1)C(=O)N[C@H](C(=O)N[C@@H](CC(N)=O)C(=O)N[C@@H](Cc1c[nH]c2ccccc12)C(=O)N[C@@H](CC(C)C)C(=O)N[C@@H](CC(C)C)C(=O)N[C@@H](C)C(=O)N[C@@H](CCC(N)=O)C(=O)N[C@@H](CCCCN)C(=O)NCC(=O)O)C(C)C)[C@@H](C)CC
B2: AT445 (peptide)
peptide: TFISDYK([AEEA-AEEA-γGlu-C18 diacid])IAMDRIHQQDFVNWLLAQRGPSSGAPPPS-OH
modifications: N-terminus assumed
SMILES: CC[C@H](C)[C@H](NC(=O)[C@H](CCCCNC(=O)COCCOCCNC(=O)COCCOCCNC(=O)CC[C@H](NC(=O)CCCCCCCCCCCCCCCCC(=O)O)C(=O)O)NC(=O)[C@H](Cc1ccc(O)cc1)NC(=O)[C@H](CC(=O)O)NC(=O)[C@H](CO)NC(=O)[C@@H](NC(=O)[C@H](Cc1ccccc1)NC(=O)[C@@H](N)[C@@H](C)O)[C@@H](C)CC)C(=O)N[C@@H](C)C(=O)N[C@@H](CCSC)C(=O)N[C@@H](CC(=O)O)C(=O)N[C@@H](CCCNC(=N)N)C(=O)N[C@H](C(=O)N[C@@H](Cc1c[nH]cn1)C(=O)N[C@@H](CCC(N)=O)C(=O)N[C@@H](CCC(N)=O)C(=O)N[C@@H](CC(=O)O)C(=O)N[C@@H](Cc1ccccc1)C(=O)N[C@H](C(=O)N[C@@H](CC(N)=O)C(=O)N[C@@H](Cc1c[nH]c2ccccc12)C(=O)N[C@@H](CC(C)C)C(=O)N[C@@H](CC(C)C)C(=O)N[C@@H](C)C(=O)N[C@@H](CCC(N)=O)C(=O)N[C@@H](CCCNC(=N)N)C(=O)NCC(=O)N1CCC[C@H]1C(=O)N[C@@H](CO)C(=O)N[C@@H](CO)C(=O)NCC(=O)N[C@@H](C)C(=O)N1CCC[C@H]1C(=O)N1CCC[C@H]1C(=O)N1CCC[C@H]1C(=O)N[C@@H](CO)C(=O)O)C(C)C)[C@@H](C)CC
B3: AT456 (peptide)
peptide: TFISDYKIAMDKIHQQDFVNWLLAQKGK
HELM: PEPTIDE1{T.F.I.S.D.Y.K.I.A.M.D.K.I.H.Q.Q.D.F.V.N.W.L.L.A.Q.K.G.K}|PEPTIDE2{[O=C(O)CCCCCCCCCCCCCCC(=O)[*:2]].[gGlu]}$PEPTIDE1,PEPTIDE2,7:R3-2:R2$$$V2.0; N-terminus assumed
SMILES: CC[C@H](C)[C@H](NC(=O)[C@H](CCCCNC(=O)CC[C@H](NC(=O)CCCCCCCCCCCCCCC(=O)O)C(=O)O)NC(=O)[C@H](Cc1ccc(O)cc1)NC(=O)[C@H](CC(=O)O)NC(=O)[C@H](CO)NC(=O)[C@@H](NC(=O)[C@H](Cc1ccccc1)NC(=O)[C@@H](N)[C@@H](C)O)[C@@H](C)CC)C(=O)N[C@@H](C)C(=O)N[C@@H](CCSC)C(=O)N[C@@H](CC(=O)O)C(=O)N[C@@H](CCCCN)C(=O)N[C@H](C(=O)N[C@@H](Cc1c[nH]cn1)C(=O)N[C@@H](CCC(N)=O)C(=O)N[C@@H](CCC(N)=O)C(=O)N[C@@H](CC(=O)O)C(=O)N[C@@H](Cc1ccccc1)C(=O)N[C@H](C(=O)N[C@@H](CC(N)=O)C(=O)N[C@@H](Cc1c[nH]c2ccccc12)C(=O)N[C@@H](CC(C)C)C(=O)N[C@@H](CC(C)C)C(=O)N[C@@H](C)C(=O)N[C@@H](CCC(N)=O)C(=O)N[C@@H](CCCCN)C(=O)NCC(=O)N[C@@H](CCCCN)C(=O)O)C(C)C)[C@@H](C)CC
B4: AT446 (peptide)
peptide: TFISDYK([AEEA-AEEA-AEEA-γGlu-C18 diacid])IAMDRIHQQDFVNWLLAQRGPSSGAPPPS-OH
modifications: N-terminus assumed
SMILES: CC[C@H](C)[C@H](NC(=O)[C@H](CCCCNC(=O)COCCOCCNC(=O)COCCOCCNC(=O)COCCOCCNC(=O)CC[C@H](NC(=O)CCCCCCCCCCCCCCCCC(=O)O)C(=O)O)NC(=O)[C@H](Cc1ccc(O)cc1)NC(=O)[C@H](CC(=O)O)NC(=O)[C@H](CO)NC(=O)[C@@H](NC(=O)[C@H](Cc1ccccc1)NC(=O)[C@@H](N)[C@@H](C)O)[C@@H](C)CC)C(=O)N[C@@H](C)C(=O)N[C@@H](CCSC)C(=O)N[C@@H](CC(=O)O)C(=O)N[C@@H](CCCNC(=N)N)C(=O)N[C@H](C(=O)N[C@@H](Cc1c[nH]cn1)C(=O)N[C@@H](CCC(N)=O)C(=O)N[C@@H](CCC(N)=O)C(=O)N[C@@H](CC(=O)O)C(=O)N[C@@H](Cc1ccccc1)C(=O)N[C@H](C(=O)N[C@@H](CC(N)=O)C(=O)N[C@@H](Cc1c[nH]c2ccccc12)C(=O)N[C@@H](CC(C)C)C(=O)N[C@@H](CC(C)C)C(=O)N[C@@H](C)C(=O)N[C@@H](CCC(N)=O)C(=O)N[C@@H](CCCNC(=N)N)C(=O)NCC(=O)N1CCC[C@H]1C(=O)N[C@@H](CO)C(=O)N[C@@H](CO)C(=O)NCC(=O)N[C@@H](C)C(=O)N1CCC[C@H]1C(=O)N1CCC[C@H]1C(=O)N1CCC[C@H]1C(=O)N[C@@H](CO)C(=O)O)C(C)C)[C@@H](C)CC
B5: AT443 (peptide)
peptide: TFISDYK([AEEA-AEEA-γGlu-C16 diacid])IAMDRIHQQDFVNWLLAQRGPSSGAPPPS-OH
modifications: N-terminus assumed
SMILES: CC[C@H](C)[C@H](NC(=O)[C@H](CCCCNC(=O)COCCOCCNC(=O)COCCOCCNC(=O)CC[C@H](NC(=O)CCCCCCCCCCCCCCC(=O)O)C(=O)O)NC(=O)[C@H](Cc1ccc(O)cc1)NC(=O)[C@H](CC(=O)O)NC(=O)[C@H](CO)NC(=O)[C@@H](NC(=O)[C@H](Cc1ccccc1)NC(=O)[C@@H](N)[C@@H](C)O)[C@@H](C)CC)C(=O)N[C@@H](C)C(=O)N[C@@H](CCSC)C(=O)N[C@@H](CC(=O)O)C(=O)N[C@@H](CCCNC(=N)N)C(=O)N[C@H](C(=O)N[C@@H](Cc1c[nH]cn1)C(=O)N[C@@H](CCC(N)=O)C(=O)N[C@@H](CCC(N)=O)C(=O)N[C@@H](CC(=O)O)C(=O)N[C@@H](Cc1ccccc1)C(=O)N[C@H](C(=O)N[C@@H](CC(N)=O)C(=O)N[C@@H](Cc1c[nH]c2ccccc12)C(=O)N[C@@H](CC(C)C)C(=O)N[C@@H](CC(C)C)C(=O)N[C@@H](C)C(=O)N[C@@H](CCC(N)=O)C(=O)N[C@@H](CCCNC(=N)N)C(=O)NCC(=O)N1CCC[C@H]1C(=O)N[C@@H](CO)C(=O)N[C@@H](CO)C(=O)NCC(=O)N[C@@H](C)C(=O)N1CCC[C@H]1C(=O)N1CCC[C@H]1C(=O)N1CCC[C@H]1C(=O)N[C@@H](CO)C(=O)O)C(C)C)[C@@H](C)CC
B6: AT444 (peptide)
peptide: TFISDYK([AEEA-AEEA-AEEA-γGlu-C16 diacid])IAMDRIHQQDFVNWLLAQRGPSSGAPPPS-OH
modifications: N-terminus assumed
SMILES: CC[C@H](C)[C@H](NC(=O)[C@H](CCCCNC(=O)COCCOCCNC(=O)COCCOCCNC(=O)COCCOCCNC(=O)CC[C@H](NC(=O)CCCCCCCCCCCCCCC(=O)O)C(=O)O)NC(=O)[C@H](Cc1ccc(O)cc1)NC(=O)[C@H](CC(=O)O)NC(=O)[C@H](CO)NC(=O)[C@@H](NC(=O)[C@H](Cc1ccccc1)NC(=O)[C@@H](N)[C@@H](C)O)[C@@H](C)CC)C(=O)N[C@@H](C)C(=O)N[C@@H](CCSC)C(=O)N[C@@H](CC(=O)O)C(=O)N[C@@H](CCCNC(=N)N)C(=O)N[C@H](C(=O)N[C@@H](Cc1c[nH]cn1)C(=O)N[C@@H](CCC(N)=O)C(=O)N[C@@H](CCC(N)=O)C(=O)N[C@@H](CC(=O)O)C(=O)N[C@@H](Cc1ccccc1)C(=O)N[C@H](C(=O)N[C@@H](CC(N)=O)C(=O)N[C@@H](Cc1c[nH]c2ccccc12)C(=O)N[C@@H](CC(C)C)C(=O)N[C@@H](CC(C)C)C(=O)N[C@@H](C)C(=O)N[C@@H](CCC(N)=O)C(=O)N[C@@H](CCCNC(=N)N)C(=O)NCC(=O)N1CCC[C@H]1C(=O)N[C@@H](CO)C(=O)N[C@@H](CO)C(=O)NCC(=O)N[C@@H](C)C(=O)N1CCC[C@H]1C(=O)N1CCC[C@H]1C(=O)N1CCC[C@H]1C(=O)N[C@@H](CO)C(=O)O)C(C)C)[C@@H](C)CC

Target: T1, human GIP receptor
Assay: cell-based or functional assay

| Binder | cAMP antagonism | cAMP antagonism % inhib | cAMP antagonism log |
| --- | --- | --- | --- |
| B1 | 31 nM | 95% | -7.5 log M |
| B2 | 47 nM | 85% | -7.3 log M |
| B3 | 60 nM | 85% | -7.2 log M |
| B4 | 152 nM | 100% | -6.8 log M |
| B5 | 171 nM | 100% | -6.8 log M |
| B6 | 153 nM | 100% | -6.8 log M |
